Where a chain is given by its changes, count along the chain named. Names and notes keep the numbering of the source.

The series deals with the molecule itself. Kind of series: cross-linking.

B1: Wild type MtrR of Neisseria gonorrhoeae (strain FA19), hexa-histidine tagged (natural protein)
chain: MRKTKTEALKTKEHLMLAALETFYRKGIARTSLNEIAQAAGVTRGALYWHFKNKEDLFDALFQRICDDIENCIAQDAADAEGGSWTVFRHTLLHFFERLQSNDIHYKFHNILFLKCEHTEQNAAVIAIARKHQAIWREKITAVLTEAVENQDLADDLDKETAVIFIKSTLDGLIWRWFSSGESFDLGKTAPRIIGIMMDNLENHPCLRRK
Usually stoichiometry N stands for a count of units in the complex or per binding partner. B1: the “stoichiometry N” value worked out at 2.

B2: H105Y mutant MtrR of Neisseria gonorrhoeae (from an antibiotic resistant clinical isolate), hexa-histidine tagged (natural protein)
chain: B1 chain with H105Y
On to B2, for which the “stoichiometry N” value is 2.

These data come from doi:10.1101/2020.07.07.192807 (bioRxiv, 2020).
